In patent US20210187069A1:

Molecular target: wildtype SARM1 (endogenous, in wildtype mouse dorsal root ganglion neurons) (mouse) (UniProt Q6PDS3)
Experiment: cell-based or functional assay

wildtype SARM1 (endogenous, in wildtype mouse dorsal root ganglion neurons) (mouse), sequence (Q6PDS3 28-724 limits assumed): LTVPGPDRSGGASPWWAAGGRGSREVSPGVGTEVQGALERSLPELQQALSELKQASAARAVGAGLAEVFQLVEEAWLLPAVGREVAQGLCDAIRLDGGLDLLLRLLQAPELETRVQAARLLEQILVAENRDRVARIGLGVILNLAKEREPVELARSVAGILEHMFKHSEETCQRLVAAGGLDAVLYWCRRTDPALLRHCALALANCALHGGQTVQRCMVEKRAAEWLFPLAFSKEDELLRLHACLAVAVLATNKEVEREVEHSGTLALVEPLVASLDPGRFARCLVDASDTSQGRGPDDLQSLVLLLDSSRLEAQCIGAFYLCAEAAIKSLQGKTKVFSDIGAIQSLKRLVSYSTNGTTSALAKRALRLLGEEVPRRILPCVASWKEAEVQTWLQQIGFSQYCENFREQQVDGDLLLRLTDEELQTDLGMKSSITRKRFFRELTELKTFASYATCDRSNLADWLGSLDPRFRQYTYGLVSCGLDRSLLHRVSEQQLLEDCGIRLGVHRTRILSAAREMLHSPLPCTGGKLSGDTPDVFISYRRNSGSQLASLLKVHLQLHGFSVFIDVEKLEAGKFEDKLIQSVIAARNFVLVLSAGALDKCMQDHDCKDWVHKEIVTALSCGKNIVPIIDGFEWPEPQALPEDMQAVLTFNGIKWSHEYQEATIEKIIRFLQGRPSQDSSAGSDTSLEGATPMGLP

Substance “SARM1 E569K (from UniProt Q6SZW1 28-724)” has an axon degeneration after axotomy of 24 h.
